Source: patent publication US20230265151A1, “GIP/GLP1 CO-AGONIST COMPOUNDS” (priority 2020, published 2023)
Where two headings read alike, the source gives them in different places. *1 amine or outer side, *2 acyl side, *3 side chain or, on linkers, in order; H or OH if unused. Where no end group is shown, it is not given here. Side-chain parts run from the residue outwards. [ ]: non-standard residue; d: D form. The star is where a group is joined. Undecanoyl(11-OPh(4-COOH)) = O=C(O)c1ccc(OCCCCCCCCCCC(=O)*)cc1; Decanoyl(10-(4-HOOC-PhO)) = O=C(O)c1ccc(OCCCCCCCCCC(=O)*)cc1; αMePhe(2-F) = C[C@](N)(Cc1ccccc1F)C(=O)O; γGlu = O=C(O)[C@H](CCC(=O)[*:2])N[*:1]; C14 diacid = O=C(O)CCCCCCCCCCCCC(=O)*; αMeY = C[C@](N)(Cc1ccc(O)cc1)C(=O)O; αMeL = CC(C)C[C@](C)(N)C(=O)O; αMeS = C[C@](N)(CO)C(=O)O; Orn = NCCC[C@H](N)C(=O)O; AEEA = NCCOCCOCC(=O)O; Aib = CC(C)(N)C(=O)O

Legend:
hGIPR = target: T1, hGIPR (Homo sapiens, UniProt P48546); assay: Functional cAMP formation (HTRF) in HEK-293 clonal cells expressing hGIPR, 0.1% bovine casein, without or with 1.0% human serum albumin; format: cell-based; details: cAMP, 37° C., 0.1% bovine casein (no human serum albumin); geometric mean; read-out: hGIPR EC50, nM (SEM, n)
T1 construct: expressed in transfected cells
T1 sequence (P48546 22-466): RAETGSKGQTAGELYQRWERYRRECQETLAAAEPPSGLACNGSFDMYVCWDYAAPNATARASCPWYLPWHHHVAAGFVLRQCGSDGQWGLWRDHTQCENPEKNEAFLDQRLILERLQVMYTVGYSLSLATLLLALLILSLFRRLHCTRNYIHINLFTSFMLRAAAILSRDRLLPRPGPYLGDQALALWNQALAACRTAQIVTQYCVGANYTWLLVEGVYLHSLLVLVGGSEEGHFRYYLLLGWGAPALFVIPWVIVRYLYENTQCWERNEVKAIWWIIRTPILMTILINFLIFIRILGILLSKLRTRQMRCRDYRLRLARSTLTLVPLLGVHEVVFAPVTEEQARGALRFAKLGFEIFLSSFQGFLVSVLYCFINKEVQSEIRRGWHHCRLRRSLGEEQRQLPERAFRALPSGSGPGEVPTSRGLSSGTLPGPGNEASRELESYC
Procedure, shortened: (§1)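 Cells were stimulated with peptide for 30 min at 37° C, then lysed in buffer carrying cAMP-d2 and anti-cAMP Eu3+-cryptate for a competitive HTRF read after at least 60 min at room temperature. The 665/620 nm ratio was converted to nM cAMP against a standard curve.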

hGCGR = target: T2, hGCGR (Homo sapiens, UniProt P47871); assay: Functional cAMP formation (HTRF) in HEK-293 clonal cells expressing hGCGR, 0.1% bovine casein, without or with 1.0% human serum albumin; format: cell-based; details: cAMP, 37° C., read-out: hGCGR EC50, nM (SEM, n)
T2 construct: expressed in transfected cells
Procedure, shortened: as §1

hGLP-1R = hGLP-1R (Homo sapiens, UniProt P43220); assay: Functional cAMP formation (HTRF) in HEK-293 clonal cells expressing hGLP-1R, 0.1% bovine casein, without or with 1.0% human serum albumin; format: cell-based; set-up: expressed in transfected cells; details: 37° C.; for EC50: cAMP, read-out: hGLP-1R EC50, nM (SEM, n)
Procedure, shortened: as §1

[1] = target: T3, human GIP receptor (human) (UniProt P48546); assay: cell-based or functional assay
T3 sequence (looked up): T1 sequence (P48546 22-466)

human GIP receptor [2] = target: T4, human GIP receptor (human, UniProt P48546 22-466); assay: cell-based or functional assay
T4 sequence (looked up): T1 sequence (P48546 22-466)

human GLP-1 receptor [3] = target: human GLP-1 receptor (human, UniProt P43220 24-463); assay: cell-based or functional assay
human GLP-1 receptor [4] = target: human GLP-1 receptor (human, UniProt P43220 24-463); assay: cell-based or functional assay; remark: listed apart in the source
human GIP receptor [5] = target: T5, human GIP receptor (human, UniProt P48546 22-466); assay: cell-based or functional assay; remark: listed apart in the source
T5 sequence (looked up): T1 sequence (P48546 22-466)

[6] = 0.1% bovine casein (no human serum albumin), geometric mean
[7] = 0.1% bovine casein and 1.0% human serum albumin, geometric mean (SEM, n)

Chain of hGLP-1R (P43220 24-463): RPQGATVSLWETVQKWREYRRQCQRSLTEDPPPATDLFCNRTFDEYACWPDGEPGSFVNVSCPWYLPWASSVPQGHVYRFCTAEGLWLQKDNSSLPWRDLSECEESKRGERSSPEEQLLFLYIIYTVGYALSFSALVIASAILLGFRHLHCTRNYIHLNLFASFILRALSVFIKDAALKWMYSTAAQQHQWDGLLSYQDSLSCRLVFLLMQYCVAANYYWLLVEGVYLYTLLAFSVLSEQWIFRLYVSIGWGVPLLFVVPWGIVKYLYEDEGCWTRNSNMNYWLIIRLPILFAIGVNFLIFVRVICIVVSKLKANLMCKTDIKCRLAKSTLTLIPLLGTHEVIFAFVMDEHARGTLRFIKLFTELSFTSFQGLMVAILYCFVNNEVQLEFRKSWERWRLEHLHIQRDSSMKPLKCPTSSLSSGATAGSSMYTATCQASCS
T2 sequence (P47871 26-477): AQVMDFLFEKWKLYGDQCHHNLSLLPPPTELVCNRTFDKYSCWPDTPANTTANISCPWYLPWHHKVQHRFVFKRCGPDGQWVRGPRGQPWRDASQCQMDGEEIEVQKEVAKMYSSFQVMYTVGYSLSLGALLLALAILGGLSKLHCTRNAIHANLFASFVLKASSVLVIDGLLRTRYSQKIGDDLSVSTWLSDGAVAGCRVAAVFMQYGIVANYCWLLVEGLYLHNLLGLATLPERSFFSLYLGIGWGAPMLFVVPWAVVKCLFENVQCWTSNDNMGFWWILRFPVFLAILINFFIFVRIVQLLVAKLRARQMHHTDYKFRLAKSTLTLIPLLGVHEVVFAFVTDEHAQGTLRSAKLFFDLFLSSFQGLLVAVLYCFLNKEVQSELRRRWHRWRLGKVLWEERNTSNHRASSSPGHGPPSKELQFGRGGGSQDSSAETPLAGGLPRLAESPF

Molecule: CC[C@H](C)[C@H](NC(=O)[C@H](CC(C)C)NC(=O)[C@](C)(Cc1ccc(O)cc1)NC(=O)[C@H](CCCCNC(=O)COCCOCCNC(=O)COCCOCCNC(=O)CC[C@H](NC(=O)CC[C@H](NC(=O)CCCCCCCCCCCCC(=O)O)C(=O)O)C(=O)O)NC(=O)[C@@H](NC(=O)[C@H](Cc1ccccc1)NC(=O)[C@H](CCCN)NC(=O)C(C)(C)NC(=O)[C@H](CCC(N)=O)NC(=O)[C@H](C)NC(=O)[C@H](CCC(N)=O)NC(=O)[C@H](CCCN)NC(=O)[C@H](CC(=O)O)NC(=O)[C@H](CC(C)C)NC(=O)[C@](C)(CC(C)C)NC(=O)[C@@H](NC(=O)C(C)(C)NC(=O)[C@H](Cc1ccc(O)cc1)NC(=O)[C@H](CC(=O)O)NC(=O)[C@H](CO)NC(=O)[C@@H](NC(=O)[C@](C)(Cc1ccccc1F)NC(=O)[C@@H](NC(=O)CNC(=O)[C@H](CCC(=O)O)NC(=O)C(C)(C)NC(=O)[C@@H](N)Cc1ccc(O)cc1)[C@@H](C)O)[C@@H](C)O)[C@@H](C)CC)[C@@H](C)CC)C(=O)N[C@@H](CCCCNC(=O)COCCOCCNC(=O)COCCOCCNC(=O)CC[C@H](NC(=O)CC[C@H](NC(=O)CCCCCCCCCCCCC(=O)O)C(=O)O)C(=O)O)C(=O)NCC(=O)NCC(=O)N1CCC[C@H]1C(=O)N[C@@H](CO)C(=O)N[C@@H](CO)C(=O)NCC(=O)N[C@@H](C)C(=O)N1CCC[C@H]1C(=O)N1CCC[C@H]1C(=O)N1CCC[C@H]1C(=O)N[C@@H](CO)C(N)=O [Example 480]
- EC50 (hGIPR): 0.00955 nM
- EC50 (hGCGR; [6]): > 9950 nM
- EC50 (hGCGR; [7]): > 9950 nM
- Emax (hGLP-1R; HEK293, cAMP, 0.1% bovine casein, percent of maximal response to GLP-1(7-36)NH2, arithmetic mean, read-out: hGLP-1R Emax, % ± SEM): 120%
- EC50 (hGLP-1R; [6]): 0.124 nM
- EC50 (hGLP-1R; [7]): 2.65 nM

Molecule: hGIP(1-42)NH2 (from UniProt P09681 52-93) (ligand)
- Emax, cAMP [1]: 100%
- cAMP EC50 (1.0% HSA) [1]: 0.597 nM
- cAMP Emax (1.0% HSA) [1]: 98%

B1: Example 339 (peptide)
peptide: YXEGTXTSDXXIXLDXIAQXEFIKXLIKGGPSSGAPPPS
modifications: Y-Aib-EGT-αMeF(2F)-TSD-4Pal-Aib-I-αMeL-LD-Orn-IAQ-Aib-EFIK((2-[2-(2-Amino-ethoxy)-ethoxy]-acetyl)-(γ-Glu)-CO-(CH2)12-CO2H)-αMeY-LIK((2-[2-(2-Amino-ethoxy)-ethoxy]-acetyl)-(γ-Glu)-CO-(CH2)12-CO2H)GGPSSGAPPPS-NH2
- cAMP EC50 (1.0% HSA) (human GIP receptor [2]): 4.35 nM
- cAMP EC50 (1.0% HSA) (human GLP-1 receptor [3]): 68.2 nM
- cAMP Emax (1.0% HSA) (human GLP-1 receptor [3]): 115%

B2: Example 91 (peptide)
peptide: Y[Aib]EGT[αMePhe(2-F)]TSDV[Aib]I[αMeL]LD[Orn]K([AEEA-AEEA-γGlu-C14 diacid])AQ[Aib]EFI[dE][αMeY]LIEGGK([AEEA-AEEA-γGlu-C14 diacid])SSGAPPPS-NH2
modifications: N-terminus assumed
SMILES: CC[C@H](C)[C@H](NC(=O)[C@H](CC(C)C)NC(=O)[C@](C)(Cc1ccc(O)cc1)NC(=O)[C@@H](CCC(=O)O)NC(=O)[C@@H](NC(=O)[C@H](Cc1ccccc1)NC(=O)[C@H](CCC(=O)O)NC(=O)C(C)(C)NC(=O)[C@H](CCC(N)=O)NC(=O)[C@H](C)NC(=O)[C@H](CCCCNC(=O)COCCOCCNC(=O)COCCOCCNC(=O)CC[C@H](NC(=O)CCCCCCCCCCCCC(=O)O)C(=O)O)NC(=O)[C@H](CCCN)NC(=O)[C@H](CC(=O)O)NC(=O)[C@H](CC(C)C)NC(=O)[C@](C)(CC(C)C)NC(=O)[C@@H](NC(=O)C(C)(C)NC(=O)[C@@H](NC(=O)[C@H](CC(=O)O)NC(=O)[C@H](CO)NC(=O)[C@@H](NC(=O)[C@](C)(Cc1ccccc1F)NC(=O)[C@@H](NC(=O)CNC(=O)[C@H](CCC(=O)O)NC(=O)C(C)(C)NC(=O)[C@@H](N)Cc1ccc(O)cc1)[C@@H](C)O)[C@@H](C)O)C(C)C)[C@@H](C)CC)[C@@H](C)CC)C(=O)N[C@@H](CCC(=O)O)C(=O)NCC(=O)NCC(=O)N[C@@H](CCCCNC(=O)COCCOCCNC(=O)COCCOCCNC(=O)CC[C@H](NC(=O)CCCCCCCCCCCCC(=O)O)C(=O)O)C(=O)N[C@@H](CO)C(=O)N[C@@H](CO)C(=O)NCC(=O)N[C@@H](C)C(=O)N1CCC[C@H]1C(=O)N1CCC[C@H]1C(=O)N1CCC[C@H]1C(=O)N[C@@H](CO)C(N)=O
- EC50, cAMP (human GLP-1 receptor [4]): 0.153 nM
- Emax, cAMP (human GLP-1 receptor [4]): 94%
- EC50, cAMP (human GIP receptor [5]): 0.0739 nM
- Emax, cAMP (human GIP receptor [5]): 92.8%

B3: Example 305 (peptide)
peptide: Y[Aib]EGT[αMePhe(2-F)]TSDV[αMeS]I[αMeL]LD[Orn]IAQ[Aib]EFIK([AEEA-AEEA-γGlu-C14 diacid])[αMeY]LIK([AEEA-AEEA-γGlu-C14 diacid])GGPSSGAPPPS-NH2
modifications: N-terminus assumed
SMILES: CC[C@H](C)[C@H](NC(=O)[C@H](CCCN)NC(=O)[C@H](CC(=O)O)NC(=O)[C@H](CC(C)C)NC(=O)[C@](C)(CC(C)C)NC(=O)[C@@H](NC(=O)[C@](C)(CO)NC(=O)[C@@H](NC(=O)[C@H](CC(=O)O)NC(=O)[C@H](CO)NC(=O)[C@@H](NC(=O)[C@](C)(Cc1ccccc1F)NC(=O)[C@@H](NC(=O)CNC(=O)[C@H](CCC(=O)O)NC(=O)C(C)(C)NC(=O)[C@@H](N)Cc1ccc(O)cc1)[C@@H](C)O)[C@@H](C)O)C(C)C)[C@@H](C)CC)C(=O)N[C@@H](C)C(=O)N[C@@H](CCC(N)=O)C(=O)NC(C)(C)C(=O)N[C@@H](CCC(=O)O)C(=O)N[C@@H](Cc1ccccc1)C(=O)N[C@H](C(=O)N[C@@H](CCCCNC(=O)COCCOCCNC(=O)COCCOCCNC(=O)CC[C@H](NC(=O)CCCCCCCCCCCCC(=O)O)C(=O)O)C(=O)N[C@@](C)(Cc1ccc(O)cc1)C(=O)N[C@@H](CC(C)C)C(=O)N[C@H](C(=O)N[C@@H](CCCCNC(=O)COCCOCCNC(=O)COCCOCCNC(=O)CC[C@H](NC(=O)CCCCCCCCCCCCC(=O)O)C(=O)O)C(=O)NCC(=O)NCC(=O)N1CCC[C@H]1C(=O)N[C@@H](CO)C(=O)N[C@@H](CO)C(=O)NCC(=O)N[C@@H](C)C(=O)N1CCC[C@H]1C(=O)N1CCC[C@H]1C(=O)N1CCC[C@H]1C(=O)N[C@@H](CO)C(N)=O)[C@@H](C)CC)[C@@H](C)CC
- cAMP EC50 (1.0% HSA) (human GIP receptor [2]): 4.34 nM
- cAMP EC50 (1.0% HSA) (human GLP-1 receptor [3]): 80.3 nM
- cAMP Emax (1.0% HSA) (human GLP-1 receptor [3]): 125%

Molecule: Y[Aib]EGT[αMePhe(2-F)]TSDV[αMeS]I[αMeL]LD[Orn]IAQ[Aib]EFIK([AEEA-AEEA-γGlu-Decanoyl(10-(4-HOOC-PhO))])[αMeY]LIK([AEEA-AEEA-γGlu-Decanoyl(10-(4-HOOC-PhO))])GGPSSGAPPPS-NH2 [Example 309]
- cAMP EC50 (1.0% HSA) (human GIP receptor [2]): 6.08 nM
- cAMP EC50 (1.0% HSA) (human GLP-1 receptor [3]): 64.6 nM

Molecule: Y[Aib]EGT[αMePhe(2-F)]TSDV[Aib]I[αMeL]LD[Orn]IAQ[Aib]EFIK([AEEA-AEEA-γGlu-Decanoyl(10-(4-HOOC-PhO))])[αMeY]LIK([AEEA-AEEA-γGlu-Decanoyl(10-(4-HOOC-PhO))])GGPSSGAPPPS-NH2 [Example 308]
- cAMP EC50 (1.0% HSA) (human GIP receptor [2]): 10.5 nM
- cAMP EC50 (1.0% HSA) (human GLP-1 receptor [3]): 67.3 nM

Molecule: Y[Aib]EGT[αMePhe(2-F)]TSDV[Aib]I[αMeL]LD[Orn]IAQ[Aib]EFIK([AEEA-AEEA-γGlu-C14 diacid])[αMeY]LIK([AEEA-AEEA-γGlu-C14 diacid])GGPSSGAPPPS-NH2 [Example 304]
- cAMP EC50 (1.0% HSA) (human GIP receptor [2]): 4.83 nM
- cAMP EC50 (1.0% HSA) (human GLP-1 receptor [3]): 64.2 nM

Molecule: Y[Aib]EGT[αMePhe(2-F)]TSDV[Aib]I[αMeL]LD[Orn]IAQ[Aib]EFIK([AEEA-AEEA-γGlu-Undecanoyl(11-OPh(4-COOH))])[αMeY]LIK([AEEA-AEEA-γGlu-Undecanoyl(11-OPh(4-COOH))])GGPSSGAPPPS-NH2 [Example 313]
- cAMP EC50 (1.0% HSA) (human GIP receptor [2]): 21.9 nM
- cAMP EC50 (1.0% HSA) (human GLP-1 receptor [3]): 98.8 nM
